Assay results from publication PMC4427307.

Target: human insulin (human)
Experiment: BLI; Octet Red, 96-well microplates, 25°C; biotinylated human insulin (12.5-50 μg/ml) immobilised on Streptavidin Biosensors; rSjLD1 (3.5-56 μg/ml) or rSjLD2 (1.78-56 μg/ml) in solution; kinetic buffer (1mM phosphate, 15mM NaCl, 0.1mg/ml BSA, 0.002% Tween-20); association 1000 s, dissociation …; double reference subtraction (BSA negative control and sensor)

Row | Substance | Kd [nM]
1 | recombinant L1 subdomain of Schistosoma japonicum insulin receptor 2 (SjLD2), expressed in Drosophila S2 cells (domain or fragment) | 8.78
2 | recombinant L1 subdomain of Schistosoma japonicum insulin receptor 1 (SjLD1), expressed in Drosophila S2 cells (domain or fragment) | 64.4
